Reference: patent US20180155451A1 (published 2018)

How the values were obtained:
[1] = target: T1, FcγRIIb extracellular domain with C-terminal His tag (human, UniProt P31994 43-217); assay: SPR (Biacore), relative binding
T1 construct: extracellular domain; also called FcgRIIb; 2b; not shown: His tag attached to the C terminus
T1 sequence (looked up): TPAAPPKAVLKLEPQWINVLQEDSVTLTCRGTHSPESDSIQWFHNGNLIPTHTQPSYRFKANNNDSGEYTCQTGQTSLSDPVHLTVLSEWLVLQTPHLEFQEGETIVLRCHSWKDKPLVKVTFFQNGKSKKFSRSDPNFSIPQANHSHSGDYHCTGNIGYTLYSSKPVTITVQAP
Method: (§1) Analysis of interaction between objective antibody and the FcγR was carried out using Biacore T100 (GE Healthcare). HBS-EP+ (GE Healthcare) was used as the running buffer, and the measurement temperature was set to 25° C. Chips produced by immobilizing the antigen peptide by the amine coupling method to a Series S Sencor Chip CM5 (GE Healthcare), or alternatively, chips produced by allowing preliminarily biotinylated antigen peptides to interact with and immobilize onto a Series S Sensor Chip SA (certified) (GE Healthcare) were used. Antibodies of interest were captured onto an antigen peptide-immobilized chip, and allowed to interact to each FcγR diluted with running buffer. To regenerate and repeatedly use the chip, the antibodies captured on the chip were washed off by reacting 10 mM glycine-HCl, pH 1.5.
(§2) The FcγR-binding activity of each antibody was assessed primarily using as an indicator the FcγR-binding activity and dissociation constant for FcγR.

[2] = target: T2, FcγRIIIa extracellular domain with C-terminal His tag (human, UniProt P08637 17-208); assay: SPR (Biacore), relative binding
T2 construct: extracellular domain; also called FcgRIIIa; 3a; not shown: His tag attached to the C terminus
Method: as §1, §2

[3] = target: T2, FcγRIIIa extracellular domain with …; assay: SPR (Biacore); He/Con_3a divided by He/Con_2b (reference: binding to FcγRIIb)
Method: as §1, §2

T2 sequence (P08637 17-208): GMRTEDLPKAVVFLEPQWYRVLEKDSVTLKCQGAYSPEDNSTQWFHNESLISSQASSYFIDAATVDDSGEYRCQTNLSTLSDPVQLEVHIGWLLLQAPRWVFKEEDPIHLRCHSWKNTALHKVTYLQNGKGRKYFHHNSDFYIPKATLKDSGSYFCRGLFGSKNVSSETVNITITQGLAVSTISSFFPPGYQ

Binder | He/Con_2b (IIb binding) [1] | He/Con_3a (IIIa binding) [2] | He_3a/2b (IIIa/IIb) [3]
GpH7-A5/GpH7-B3 variant A327_10E/GpL16-k0 (antibody, human IgG1, kappa, Heterodimerized IgG1; alteration in one H chain only; also called He Ab) heavy 1: not shown heavy 2: not shown light: DIVMTQSPLSLPVTPGEPASISCQASESLVHSNRNTYLHWYLQKPGQSPQLLIYKVSNRFSGVPDRFSGSGSGTDFTLKISRVEAEDVGVYYCSQNTHVPPTFGQGTKVEIERTVAAPSVFIFPPSDEQLKSGTASVVCLLNNFYPREAKVQWKVDNALQSGNSQESVTEQDSKDSTYSLSSTLTLSKADYEKHKVYACEVTHQGLSSPVTKSFNRGEC | 140 % of GpH7-A5/GpH7-B3/GpL16-k0 (=100) | 68.6 % of GpH7-A5/GpH7-B3/GpL16-k0 (=100) | 0.49 ratio
GpH7-A5/GpH7-B3 variant K326_07I/GpL16-k0 (antibody, human IgG1, kappa, Heterodimerized IgG1; alteration in one H chain only; also called He Ab) heavy 1: not shown heavy 2: not shown light: DIVMTQSPLSLPVTPGEPASISCQASESLVHSNRNTYLHWYLQKPGQSPQLLIYKVSNRFSGVPDRFSGSGSGTDFTLKISRVEAEDVGVYYCSQNTHVPPTFGQGTKVEIERTVAAPSVFIFPPSDEQLKSGTASVVCLLNNFYPREAKVQWKVDNALQSGNSQESVTEQDSKDSTYSLSSTLTLSKADYEKHKVYACEVTHQGLSSPVTKSFNRGEC | 199 % of GpH7-A5/GpH7-B3/GpL16-k0 (=100) | 139 % of GpH7-A5/GpH7-B3/GpL16-k0 (=100) | 0.7 ratio
GpH7-A5/GpH7-B3 variant A327_15Y/GpL16-k0 (antibody, human IgG1, kappa, Heterodimerized IgG1; alteration in one H chain only; also called He Ab) heavy 1: not shown heavy 2: not shown light: DIVMTQSPLSLPVTPGEPASISCQASESLVHSNRNTYLHWYLQKPGQSPQLLIYKVSNRFSGVPDRFSGSGSGTDFTLKISRVEAEDVGVYYCSQNTHVPPTFGQGTKVEIERTVAAPSVFIFPPSDEQLKSGTASVVCLLNNFYPREAKVQWKVDNALQSGNSQESVTEQDSKDSTYSLSSTLTLSKADYEKHKVYACEVTHQGLSSPVTKSFNRGEC | 60.8 % of GpH7-A5/GpH7-B3/GpL16-k0 (=100) | 46.8 % of GpH7-A5/GpH7-B3/GpL16-k0 (=100) | 0.77 ratio
GpH7-A5/GpH7-B3 variant K326_15Y/GpL16-k0 (antibody, human IgG1, kappa, Heterodimerized IgG1; alteration in one H chain only; also called He Ab) heavy 1: not shown heavy 2: not shown light: DIVMTQSPLSLPVTPGEPASISCQASESLVHSNRNTYLHWYLQKPGQSPQLLIYKVSNRFSGVPDRFSGSGSGTDFTLKISRVEAEDVGVYYCSQNTHVPPTFGQGTKVEIERTVAAPSVFIFPPSDEQLKSGTASVVCLLNNFYPREAKVQWKVDNALQSGNSQESVTEQDSKDSTYSLSSTLTLSKADYEKHKVYACEVTHQGLSSPVTKSFNRGEC | 159 % of GpH7-A5/GpH7-B3/GpL16-k0 (=100) | 112 % of GpH7-A5/GpH7-B3/GpL16-k0 (=100) | 0.7 ratio
GpH7-A5/GpH7-B3 variant A327_20W/GpL16-k0 (antibody, human IgG1, kappa, Heterodimerized IgG1; alteration in one H chain only; also called He Ab) heavy 1: not shown heavy 2: not shown light: DIVMTQSPLSLPVTPGEPASISCQASESLVHSNRNTYLHWYLQKPGQSPQLLIYKVSNRFSGVPDRFSGSGSGTDFTLKISRVEAEDVGVYYCSQNTHVPPTFGQGTKVEIERTVAAPSVFIFPPSDEQLKSGTASVVCLLNNFYPREAKVQWKVDNALQSGNSQESVTEQDSKDSTYSLSSTLTLSKADYEKHKVYACEVTHQGLSSPVTKSFNRGEC | 78.8 % of GpH7-A5/GpH7-B3/GpL16-k0 (=100) | 51.2 % of GpH7-A5/GpH7-B3/GpL16-k0 (=100) | 0.65 ratio
GpH7-A5/GpH7-B3 variant K326_09D/GpL16-k0 (antibody, human IgG1, kappa, Heterodimerized IgG1; alteration in one H chain only; also called He Ab) heavy 1: not shown heavy 2: not shown light: DIVMTQSPLSLPVTPGEPASISCQASESLVHSNRNTYLHWYLQKPGQSPQLLIYKVSNRFSGVPDRFSGSGSGTDFTLKISRVEAEDVGVYYCSQNTHVPPTFGQGTKVEIERTVAAPSVFIFPPSDEQLKSGTASVVCLLNNFYPREAKVQWKVDNALQSGNSQESVTEQDSKDSTYSLSSTLTLSKADYEKHKVYACEVTHQGLSSPVTKSFNRGEC | 193 % of GpH7-A5/GpH7-B3/GpL16-k0 (=100) | 134 % of GpH7-A5/GpH7-B3/GpL16-k0 (=100) | 0.69 ratio
GpH7-A5/GpH7-B3 variant A327_14T/GpL16-k0 (antibody, human IgG1, kappa, Heterodimerized IgG1; alteration in one H chain only; also called He Ab) heavy 1: not shown heavy 2: not shown light: DIVMTQSPLSLPVTPGEPASISCQASESLVHSNRNTYLHWYLQKPGQSPQLLIYKVSNRFSGVPDRFSGSGSGTDFTLKISRVEAEDVGVYYCSQNTHVPPTFGQGTKVEIERTVAAPSVFIFPPSDEQLKSGTASVVCLLNNFYPREAKVQWKVDNALQSGNSQESVTEQDSKDSTYSLSSTLTLSKADYEKHKVYACEVTHQGLSSPVTKSFNRGEC | 89.4 % of GpH7-A5/GpH7-B3/GpL16-k0 (=100) | 41.4 % of GpH7-A5/GpH7-B3/GpL16-k0 (=100) | 0.46 ratio
GpH7-A5/GpH7-B3 variant A327_16H/GpL16-k0 (antibody, human IgG1, kappa, Heterodimerized IgG1; alteration in one H chain only; also called He Ab) heavy 1: not shown heavy 2: not shown light: DIVMTQSPLSLPVTPGEPASISCQASESLVHSNRNTYLHWYLQKPGQSPQLLIYKVSNRFSGVPDRFSGSGSGTDFTLKISRVEAEDVGVYYCSQNTHVPPTFGQGTKVEIERTVAAPSVFIFPPSDEQLKSGTASVVCLLNNFYPREAKVQWKVDNALQSGNSQESVTEQDSKDSTYSLSSTLTLSKADYEKHKVYACEVTHQGLSSPVTKSFNRGEC | 63.5 % of GpH7-A5/GpH7-B3/GpL16-k0 (=100) | 43.7 % of GpH7-A5/GpH7-B3/GpL16-k0 (=100) | 0.69 ratio
GpH7-A5/GpH7-B3 variant K326_03V/GpL16-k0 (antibody, human IgG1, kappa, Heterodimerized IgG1; alteration in one H chain only; also called He Ab) heavy 1: not shown heavy 2: not shown light: DIVMTQSPLSLPVTPGEPASISCQASESLVHSNRNTYLHWYLQKPGQSPQLLIYKVSNRFSGVPDRFSGSGSGTDFTLKISRVEAEDVGVYYCSQNTHVPPTFGQGTKVEIERTVAAPSVFIFPPSDEQLKSGTASVVCLLNNFYPREAKVQWKVDNALQSGNSQESVTEQDSKDSTYSLSSTLTLSKADYEKHKVYACEVTHQGLSSPVTKSFNRGEC | 175 % of GpH7-A5/GpH7-B3/GpL16-k0 (=100) | 122 % of GpH7-A5/GpH7-B3/GpL16-k0 (=100) | 0.7 ratio
GpH7-A5/GpH7-B3 variant K326_08L/GpL16-k0 (antibody, human IgG1, kappa, Heterodimerized IgG1; alteration in one H chain only; also called He Ab) heavy 1: not shown heavy 2: not shown light: DIVMTQSPLSLPVTPGEPASISCQASESLVHSNRNTYLHWYLQKPGQSPQLLIYKVSNRFSGVPDRFSGSGSGTDFTLKISRVEAEDVGVYYCSQNTHVPPTFGQGTKVEIERTVAAPSVFIFPPSDEQLKSGTASVVCLLNNFYPREAKVQWKVDNALQSGNSQESVTEQDSKDSTYSLSSTLTLSKADYEKHKVYACEVTHQGLSSPVTKSFNRGEC | 177 % of GpH7-A5/GpH7-B3/GpL16-k0 (=100) | 114 % of GpH7-A5/GpH7-B3/GpL16-k0 (=100) | 0.65 ratio
GpH7-A5/GpH7-B3 variant K326_06M/GpL16-k0 (antibody, human IgG1, kappa, Heterodimerized IgG1; alteration in one H chain only; also called He Ab) heavy 1: not shown heavy 2: not shown light: DIVMTQSPLSLPVTPGEPASISCQASESLVHSNRNTYLHWYLQKPGQSPQLLIYKVSNRFSGVPDRFSGSGSGTDFTLKISRVEAEDVGVYYCSQNTHVPPTFGQGTKVEIERTVAAPSVFIFPPSDEQLKSGTASVVCLLNNFYPREAKVQWKVDNALQSGNSQESVTEQDSKDSTYSLSSTLTLSKADYEKHKVYACEVTHQGLSSPVTKSFNRGEC | 165 % of GpH7-A5/GpH7-B3/GpL16-k0 (=100) | 115 % of GpH7-A5/GpH7-B3/GpL16-k0 (=100) | 0.7 ratio
GpH7-A5/GpH7-B3 variant A327_18N/GpL16-k0 (antibody, human IgG1, kappa, Heterodimerized IgG1; alteration in one H chain only; also called He Ab) heavy 1: not shown heavy 2: not shown light: DIVMTQSPLSLPVTPGEPASISCQASESLVHSNRNTYLHWYLQKPGQSPQLLIYKVSNRFSGVPDRFSGSGSGTDFTLKISRVEAEDVGVYYCSQNTHVPPTFGQGTKVEIERTVAAPSVFIFPPSDEQLKSGTASVVCLLNNFYPREAKVQWKVDNALQSGNSQESVTEQDSKDSTYSLSSTLTLSKADYEKHKVYACEVTHQGLSSPVTKSFNRGEC | 113 % of GpH7-A5/GpH7-B3/GpL16-k0 (=100) | 61.1 % of GpH7-A5/GpH7-B3/GpL16-k0 (=100) | 0.54 ratio
GpH7-A5/GpH7-B3 variant K326_10E/GpL16-k0 (antibody, human IgG1, kappa, Heterodimerized IgG1; alteration in one H chain only; also called He Ab) heavy 1: not shown heavy 2: not shown light: DIVMTQSPLSLPVTPGEPASISCQASESLVHSNRNTYLHWYLQKPGQSPQLLIYKVSNRFSGVPDRFSGSGSGTDFTLKISRVEAEDVGVYYCSQNTHVPPTFGQGTKVEIERTVAAPSVFIFPPSDEQLKSGTASVVCLLNNFYPREAKVQWKVDNALQSGNSQESVTEQDSKDSTYSLSSTLTLSKADYEKHKVYACEVTHQGLSSPVTKSFNRGEC | 200 % of GpH7-A5/GpH7-B3/GpL16-k0 (=100) | 124 % of GpH7-A5/GpH7-B3/GpL16-k0 (=100) | 0.62 ratio
GpH7-A5/GpH7-B3 variant K326_04F/GpL16-k0 (antibody, human IgG1, kappa, Heterodimerized IgG1; alteration in one H chain only; also called He Ab) heavy 1: not shown heavy 2: not shown light: DIVMTQSPLSLPVTPGEPASISCQASESLVHSNRNTYLHWYLQKPGQSPQLLIYKVSNRFSGVPDRFSGSGSGTDFTLKISRVEAEDVGVYYCSQNTHVPPTFGQGTKVEIERTVAAPSVFIFPPSDEQLKSGTASVVCLLNNFYPREAKVQWKVDNALQSGNSQESVTEQDSKDSTYSLSSTLTLSKADYEKHKVYACEVTHQGLSSPVTKSFNRGEC | 155 % of GpH7-A5/GpH7-B3/GpL16-k0 (=100) | 103 % of GpH7-A5/GpH7-B3/GpL16-k0 (=100) | 0.66 ratio
